Consider 13 substances from patent publication US20250186594A1.

The target in assay [1] is His-tagged human IL-18BP (human) (UniProt O95998). The experiment in a line: AlphaLISA of free IL-18BP.
In assay [2] the target is Fc fused human IL-18BP isoform a (IL-18BPa) (human) (UniProt O95998). The experiment in a line: SPR, Fc-IL-18BPa captured, 1:1 fit.
Assay [3] has as its target His-tagged human IL-18BP (human) (UniProt O95998). Kind of assay: AlphaLISA of free IL-18BP (signal at 615 nm) after incubation of His-tagged human IL-18BP with a dilution series of the IL-18 polypeptide.

Sequence of Fc fused human IL-18BP isoform a (IL-18BPa) (human) (O95998 31-194): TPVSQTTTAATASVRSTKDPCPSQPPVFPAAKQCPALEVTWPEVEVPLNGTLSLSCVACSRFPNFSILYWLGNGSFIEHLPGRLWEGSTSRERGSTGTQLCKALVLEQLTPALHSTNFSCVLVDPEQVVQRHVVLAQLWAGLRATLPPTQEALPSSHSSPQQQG
Sequence of Native IL-18 wild-type (SEQ ID NO: 1, native sequence) (Q14116 37-193): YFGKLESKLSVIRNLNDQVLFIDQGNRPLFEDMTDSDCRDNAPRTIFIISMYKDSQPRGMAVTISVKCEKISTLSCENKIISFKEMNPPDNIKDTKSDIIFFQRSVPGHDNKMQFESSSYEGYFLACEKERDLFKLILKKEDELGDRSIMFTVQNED

“IL-18 variant SEQ ID NO: 63 (E6K, C38A, K53A, C76A, C127A) (from UniProt Q14116 37-193) (ligand)” yielded a Kd in assay [1] of 0.0203 µM. Further, in assay [2], the Kd was found to be 0.0015 µM, the koff was found to be 0.00424 s⁻¹ and the kon was 2.82e+06 M⁻¹ s⁻¹.
On the same counts, the results for “IL-18 variant SEQ ID NO: 62 (E6K, C38A, K53A, C127A) (from UniProt Q14116 37-193) (ligand)” are 0.0696 µM, 0.00196 µM, 0.00315 s⁻¹ and 1.61e+06 M⁻¹ s⁻¹.
“IL-18 variant SEQ ID NO: 30 (E6K, V11I, C38A, K53A, T63A, C76A, C127A) (from UniProt Q14116 37-193) (ligand)”: the Kd in assay [1] came to 0.0246 µM. In assay [2], this substance returned a Kd of 0.00305 µM, a koff of 0.00345 s⁻¹ and a kon of 1.05e+06 M⁻¹ s⁻¹. This substance also came in with an IC50 (read off the curve) in assay [3] of 0.008 µM.
As for “IL-18 variant SEQ ID NO: 59 with 30 kDa PEG (E6K, C38A, K53A, C68-30kDPEG) (from UniProt Q14116 37-193) (ligand)”, in assay [1], the Kd turned out to be 0.0752 µM. In assay [2], this substance had a Kd of 0.0194 µM, an off-rate (koff) of 0.00355 s⁻¹ and a kon of 199000 M⁻¹ s⁻¹.
In the same order, the values of “IL-18 variant SEQ ID NO: 30 with 5 kDa PEG (E6K, V11I, C38A, K53A, T63A, C76A, C127A, C68-5kPEG) (from UniProt Q14116 37-193) (ligand)” are 0.0197 µM, 0.00475 µM, 0.00386 s⁻¹ and 813000 M⁻¹ s⁻¹.
On the same counts, the results for “IL-18 variant SEQ ID NO: 60 with 30 kDa PEG (E6K, C38Q, K53A, C68-30kPEG) (from UniProt Q14116 37-193) (ligand)” are 0.0637 µM, 0.022 µM, 0.00395 s⁻¹ and 193000 M⁻¹ s⁻¹.
As to “IL-18 variant SEQ ID NO: 57 with 30 kDa PEG (E6K, C38S, K53A, C68-30kDPEG) (from UniProt Q14116 37-193) (ligand)”, the Kd in assay [1] is 0.0425 µM. In assay [2], this substance yielded a Kd of 0.023 µM, a koff of 0.00397 s⁻¹ and a kon of 177000 M⁻¹ s⁻¹.
As for “Native IL-18 wild-type (SEQ ID NO: 1, native sequence) (from UniProt Q14116 37-193) (ligand)”, the Kd in assay [1] was determined as 0.000411 µM. In assay [2], this substance yielded a Kd of 0.000246 µM, a dissociation rate constant (koff) of 0.00038 s⁻¹ and a kon of 1.28e+06 M⁻¹ s⁻¹. Moreover, in assay [3], the IC50 (read off the curve) was 0.0006 µM.
With “IL-18 variant SEQ ID NO: 62 with 30 kDa PEG (E6K, C38A, K53A, C127A, C68-30kPEG) (from UniProt Q14116 37-193) (ligand)”, the Kd in assay [1] is 0.0293 µM. Moreover, in assay [2], the Kd was 0.024 µM, the koff is 0.00342 s⁻¹ and the kon came to 142000 M⁻¹ s⁻¹.
Take “IL-18 variant SEQ ID NO: 30 with 10 kDa PEG (E6K, V11I, C38A, K53A, T63A, C76A, C127A, C68-10kPEG) (from UniProt Q14116 37-193) (ligand)”: the Kd in assay [1] worked out at 0.0157 µM. In addition, in assay [2], the Kd was 0.00683 µM, the koff turned out to be 0.0036 s⁻¹ and the kon came to 527000 M⁻¹ s⁻¹.
Regarding “IL-18 variant SEQ ID NO: 30 with 20 kDa PEG (E6K, V11I, C38A, K53A, T63A, C76A, C127A, C68-20kPEG) (from UniProt Q14116 37-193) (ligand)”, the Kd in assay [1] is 0.0197 µM. In assay [2], the dissociation constant (Kd) stood at 0.012 µM, the off-rate constant (koff) is 0.00397 s⁻¹ and the kon was 330000 M⁻¹ s⁻¹.
The substance “IL-18 variant SEQ ID NO: 57 (E6K, C38S, K53A) (from UniProt Q14116 37-193) (ligand)” came in with a dissociation constant Kd in assay [1] of 0.0484 µM. In addition, in assay [2], the Kd was 0.0018 µM, the off-rate (koff) worked out at 0.00311 s⁻¹ and the kon was determined as 1.63e+06 M⁻¹ s⁻¹.
For the substance “IL-18 variant SEQ ID NO: 60 (E6K, C38Q, K53A) (from UniProt Q14116 37-193) (ligand)”, the Kd in assay [1] is 0.0248 µM. Also, in assay [2], the Kd was 0.0017 µM, the koff was 0.00308 s⁻¹ and the kon is 1.87e+06 M⁻¹ s⁻¹.
